Data published in paper PMC8938504 (Nature Communications, 2022).

Assays:
6×His-tagged AVR-Pia = 6×His-tagged AVR-Pia (Magnaporthe oryzae); assay: SPR; […] (single-cycle kinetics, […]; 25 °C; 20 mM Tris pH 8, 150 mM NaCl, 0.5 mM DTT; […]; settings: both partners purified
6×His-tagged AVR1-CO39 = 6×His-tagged AVR1-CO39 (Magnaporthe oryzae); assay: as above; settings: both partners purified
6×His-tagged AVR1-CO39 (Magnaporthe oryzae), sequence (F7J0N2 982-1116): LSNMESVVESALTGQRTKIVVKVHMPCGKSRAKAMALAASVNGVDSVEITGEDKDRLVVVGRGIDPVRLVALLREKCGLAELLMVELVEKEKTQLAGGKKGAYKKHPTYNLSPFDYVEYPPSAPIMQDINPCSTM

6×His-tagged AVR-Pia (Magnaporthe oryzae), sequence (F7J0N2 982-1116): as above

B1: MBP:RGA5_HMA (wild-type RGA5 HMA domain fused to the maltose-binding protein) (domain or fragment)
chain: SALTGQRTKIVVKVHMPCGKSRAKAMALAASVNGVDSVEITGEDKDRLVVVGRGIDPVRLVALLREKCGLAELLMVELVEKE
Kd (6×His-tagged AVR-Pia): 7.2 µM | Kd (6×His-tagged AVR1-CO39): 4.9 µM
